# Variants at the floor of the assay were thinned out.
# B1: TPR 5TU (parent)
# chain: GGAUCUUCUCGAUCUAACAAAAAAGACAAAUCUGCCACAAAGCUUGAGAGCAUCUUCGGAUGCAGAGGCGGCAGCCUUCGGUGGCGCGAUAGCGCCAACGUUCUCAACUAUGACACGCAAAACGCGUGCUCCGUUGAAUGGAGUUUAUCAUG
# Variants of: B1
# Assay: polymerase ribozyme fitness, log enrichment relative to wild type (log ratio); higher = more active; in vitro selection for triplet polymerase activity
# Outline: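 Input and output libraries were sequenced on Illumina after a single in vitro selection round, run in triplicate on PCR-built, transcribed mutant libraries of each subunit of a heterodimeric triplet polymerase ribozyme. Selection annealed libraries to a biotinylated primer, the partner subunit and triplets, incubated them frozen at −7 °C, then gel-excised extended constructs for streptavidin-bead capture and RT-PCR. Genotypes with ≥10 input reads and ≥1 read per output were kept. Fitness is the logarithm, taken in base 2, of genotype enrichment divided by wild-type enrichment, using inverse-variance-weighted replicate averages.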
row,Variant,polymerase ribozyme fitness (log ratio)
1,C38A C93A G143U,-4.12
2,A37C G59A G81A C96A,-2.74
3,A37U G58C A97G C132U,-2.67
4,A37U A49C C63G C87G G124U,≤ -4.2
5,C36U U145A G152A,-3
6,A37C A41G G86C G92U C95U,-3.05
7,C36U U102G C108A C116U A122G,≤ -4.2
8,A37G G50C,-3.93
9,C36U G59C C95A,-1.64
10,C36U G58A C87A C131U G143A,≤ -4.2
11,C38A U53A C63U G80A C95A,≤ -4.2
12,C36U G59C C131U,-0.515
13,C36U C72U,-0.573
14,A37U G84A U102C C123G,-4.19
15,A37U C51U G92U,-2.25
16,A37U G94A,-1
17,A37C U53A U78A C85A,≤ -4.2
18,C38G G92A C105G,≤ -4.2
19,C38G G42C U82G G86C G141C U144G,≤ -4.2
20,A37G G58C C85A,-3.83
21,A37C G86A,-1.34

row,Variant,polymerase ribozyme fitness (log ratio)
1,A37G G83U G84A A142G,≤ -4.2
2,C38G G42C G71C C95A C96A,≤ -4.2
3,C36U A41G C95A A122G,-0.35
4,C38A A73G C79A C114G G124U G140U U148G,≤ -4.2
5,C38G G80C C99G C116U,-0.78
6,C38G A142C,-1.24
7,C38A C76U A110G A113G G152A,≤ -4.2
8,C36U A41G G83C G84U C116U,-4.09
9,C36U G58U G94A C105U C125U U135C,-3.89
10,A37C C75G G80A C149G,≤ -4.2
11,C38A U55A U135A U146C,-1.06
12,A37G U61A G141C U148C,≤ -4.2
13,A37U A52G C76U C95A,-2.41
14,C36U C38U G83A A121U,-1.34
15,A37C A47C G88A G100A A137U,≤ -4.2
16,A37G G117U,-2.18
17,A37U A40C U55A G58A G59A G84C G126A,-4.07
18,C38G C123A,-0.288
19,C38G A40G G83A,-3.86
20,A37C A49C A91G G94A C96U A106G,≤ -4.2
21,C38A U56A G86C,-3.01

row,Variant,polymerase ribozyme fitness (log ratio)
1,A37C C95A A97C A121U,-2.71
2,A37U A52G C76A C96U C131G,≤ -4.2
3,A37U G88U G92C A122G G133U G143A A150U,-4.06
4,C36U U55A A97G A121G U134G,-3.22
5,A37G G74U C87G A115C,≤ -4.2
6,C36U C85U G133A U135C,-4.18
7,A37G G42C G88U A115G,≤ -4.2
8,A37C A49G C87U A115C,-3.32
9,A37U A52C A73U G86A C96A C108G G133A G141A,≤ -4.2
10,A37C C116G,-0.143
11,C36U C75G C96G A121U,≤ -4.2
12,C38A C85G G86U,≤ -4.2
13,A37U G42A C85A A138G,≤ -4.2
14,A37C C96G A106G,-0.258
15,A37C C95A A138C G141C,≤ -4.2
16,A37G A60C,-3.15
17,A37U G58A G59C A121U,-0.167
18,C38G C43U G81U G86U A98G C103G A150G U151C,≤ -4.2
19,A37G C96A U102A C131U G136U,≤ -4.2
20,C38A U56A G74C G92U U109G,≤ -4.2
21,A37G A64G G80A G88U G143A,≤ -4.2

row,Variant,polymerase ribozyme fitness (log ratio)
1,A37U G68U C118A,≤ -4.2
2,A37U A52G G83A G84A A115U,≤ -4.2
3,C38A U55A A106C G117A U146A,-1.67
4,A37C G46A U61A G74A C93U A122U,≤ -4.2
5,A37C U77C G92A C96A U139C,≤ -4.2
6,C36U U55A,-0.574
7,C38A U55A G94U C99G,-3.88
8,A37C G71U G86A A106U C132G U145G,≤ -4.2
9,C36U C95G C108A,-3.89
10,C38A C85A U144C,-0.839
11,C36U G94A,-3.52
12,C38A C93A,-2.59
13,C36U C87G,≤ -4.2
14,C36U G50C C85A A110C,≤ -4.2
15,C36U U77G A98U U134A,≤ -4.2
16,A37C C85U G88C A137U,≤ -4.2
17,A37C C95U C103G C118G,≤ -4.2
18,C36U G81A C93G G136A,≤ -4.2
19,A37U C51G G88A,≤ -4.2
20,A37U C103A,-3.85

# Reference: the RNAGym collection of RNA variant scans (doi:10.1073/pnas.2313332121)
